Measurements from PMC3697942.

Target: T1, HB5 (HOMEOBOX PROTEIN 5, class I HD-ZIP) (Arabidopsis thaliana, UniProt P46667 1-312)
T1 sequence: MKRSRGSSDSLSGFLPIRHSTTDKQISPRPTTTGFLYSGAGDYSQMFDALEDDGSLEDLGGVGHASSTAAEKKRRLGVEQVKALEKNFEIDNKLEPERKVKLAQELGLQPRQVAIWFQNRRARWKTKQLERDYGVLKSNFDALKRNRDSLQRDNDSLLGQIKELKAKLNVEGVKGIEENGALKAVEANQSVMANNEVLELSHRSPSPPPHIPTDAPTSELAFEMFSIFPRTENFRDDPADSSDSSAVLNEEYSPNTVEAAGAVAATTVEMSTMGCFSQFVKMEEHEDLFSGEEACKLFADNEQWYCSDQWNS
Assay: EMSA

B1: PF 36bp (dsDNA)
DNA 1: GGCCCGCCATTACAAGACATATGGGTCCCAATTCTCATCACGGGCC
DNA 2: GGCCCGTGATGAGAATTGGGACCCATATGTCTTGTAATGGCGGGCC
binding result: binds
